Data taken from patent US20230025360A1, “PROCESSES FOR GENERATING SUPERIOR ANTI-TUMOR T-CELL EFFECTOR AND MEMORY CELLS” (MUSC Foundation for Research Development, priority 2016, published 2023).

Key:
[1] = system: Splenic T cells; test: Splenic T cells activated with anti-CD3/28 in presence of α-KG; type: cell-based, C57BL/6 mouse; details: α-KG pretreatment for three days
Description: Splenic T cells from C57BL/6 mouse were activated with anti-CD3/28 (each 2 μg/ml) either in absence or presence of α-KG for three days, after which: (FIG. 10A) Glucose uptake was determined using 2NBDG, and (FIG. 10B) Tscm phenotype was evaluated using CD62L and CD44 cell surface expression. N=2.

[2] = system: murine melanoma B16-F10; test: Adoptive transfer of T cells activated in presence of rTrx; type: in vivo, C57BL/6 mice; details: gp100 reactive effector T cells generated in presence of rTrx
Description: (FIG. 7A) Three day activated gp100 epitope reactive splenic T cells from Pmel and Pmel−Trx mouse were re-stimulated overnight with cognate antigen, and supernatant was evaluated for secreted Trx by ELISA as per protocol. N=3 **p<0.005. (FIG. 7B) Pmel T cells were labeled with CFSE and stimulated with cognate antigen gp100 for three days. The expression of Trx was then determined using flurochrome conjugated antibody by gating on the cells in different phase of division. (FIG. 7C) CFSE labeled Pmel T cells were stimulated with cognate antigen in absence or presence of rTRx at various doses. Pmel T cells activated with cognate antigen in presence of rTrx (5 μg/ml) were used at day 3 to determine the expression of Trx (FIG. 7D), iGSH (FIG. 7E), pAMPK (FIG. 7F), stemness genes using qPCR (FIG. 7G), Annexin V upregulation after 4 hr of TCR restimulation with cognate antigen hgp100 or non-cognate ova peptide (FIG. 7H), and Glucose uptake using 2NBDG (FIG. 7I). N=2-3. Numerical values=MFI. *p<0.05, **p<0.01. […]
Further, it was determined if the strategy to activate and expand in presence of rTrx ex vivo would render tumor epitope reactive T cells with robust anti-tumor property.

[3] = system: NF-KB; test: NF-KB activity after addition of recombinant Trx; type: cell-based
[4] = system: Pmel T cells; test: Pmel T cells activated with cognate antigen in presence of rTrx; type: cell-based
Description: (FIG. 7A) Three day activated gp100 epitope reactive splenic T cells from Pmel and Pmel−Trx mouse were re-stimulated overnight with cognate antigen, and supernatant was evaluated for secreted Trx by ELISA as per protocol. N=3 **p<0.005. (FIG. 7B) Pmel T cells were labeled with CFSE and stimulated with cognate antigen gp100 for three days. The expression of Trx was then determined using flurochrome conjugated antibody by gating on the cells in different phase of division. (FIG. 7C) CFSE labeled Pmel T cells were stimulated with cognate antigen in absence or presence of rTRx at various doses. Pmel T cells activated with cognate antigen in presence of rTrx (5 μg/ml) were used at day 3 to determine the expression of Trx (FIG. 7D), iGSH (FIG. 7E), pAMPK (FIG. 7F), stemness genes using qPCR (FIG. 7G), Annexin V upregulation after 4 hr of TCR restimulation with cognate antigen hgp100 or non-cognate ova peptide (FIG. 7H), and Glucose uptake using 2NBDG (FIG. 7I). N=2-3. Numerical values=MFI. *p<0.05, **p<0.01. (FIG. 7J) Melanoma epitope gp100 reactive T cells obtained from Pmel TCR transgenic mouse were activated with cognate antigen either in presence or absence of recombinant thioredoxin (rTrx) for three days before being adoptively transferred to the immunocompetent C57BL/6 recipient mice with ten day subcutaneously established murine melanoma B16-F10. Tumor measurements from two different experiments where Pmel and Pmel+rTrx were transferred to 9 recipient mice was compiled for this presentation. ***p value<0.01 obtained at last time point of the tumor measurement before the experiment was terminated.
To get an insight into the mechanism that may be responsible for the ability of co-injected Pmel T cells to respond to tumor rechallenge (as in FIG. 6), it was determined if Pmel−Trx secreted Trx upon antigen restimulation. […] Further, to determine how secreted Trx would have modulated the Pmel T cells, recombinant Trx was used during antigen induced in vitro Pmel activation and compared the phenotype with untreated Pmel and Pmel−Trx T cells. […] It has also been shown recently that Trx1-mediated reduction of Cys130 and Cys174 is essential for AMPK function, and decreased Trx levels could lead to oxidation of Cys130 and Cys174 by inducing aggregation that prevents its activation and phosphorylation by AMPK kinases (Shao D et al., 2014, Cell Metab, 19(2):232-45).

[5] = system: Splenic T cells; test: Homeostatic proliferation of IL2 or IL2+IL4 activated T cells in Rag1−/− recipients; type: in vivo, C57BL/6 mice; details: IL2+IL4 vs IL2, tracked at day 28
Excerpt: Splenic T cells from C57BL/6 mice on Thy1.1 or Thy1.2 background were activated for three days either in 1L2 or IL2+IL4 respectively, and mixed in 1:1 ratio before injecting i.v. in Rag1−/− recipients to determine any differences in homeostatic proliferation. Transferred T cells were tracked at day 28 by staining Thy1.1 and Th1.2 cells in various lymphoid and non-lymphoid tissues.

[6] = TCR re-stimulation with cognate antigen (hgp100), cultured three days with recombinant Trx

O=C(O)CCC(=O)C(=O)O [α-ketoglutarate]
T cell phenotype (CD62L and CD44 cell surface expression) [1]: renders Tscm phenotype

B1: rTrx: recombinant thioredoxin added during ex vivo T cell activation (protein, UniProt P10599 2-105, looked up)
Thioredoxin: VKQIESKTAFQEALDAAGDKLVVVDFSATWCGPCKMIKPFFHSLSEKYSNVIFLEVDVDDCQDVASECEVKCMPTFQFFKKGQKVGEFSGANKEKLEATINELV
survival of transferred T cells in vivo [2]: survive longer | tumor control [2]: much improved tumor control | NF-KB activity [3]: decrease | toxicity / cell division during T cell activation ([4]; CFSE labeled Pmel T cells, rTrx at various doses): non-toxic | cell death as measured by Annexin V levels [4, 6]: reduced cell death | glucose uptake (2NBDG) [4, 6]: reduced | pAMPK ([4]; compared to activated Pmel T cells): increased pAMPK | Lef1 gene expression (qPCR, stemness genes) ([4]; rTrx 5 μg/ml, day 3): up-regulation | Tcf7 gene expression (qPCR, stemness genes) ([4]; rTrx 5 μg/ml, day 3): up-regulation | expression of Trx ([4]; rTrx 5 μg/ml, day 3): increased expression | expression of iGSH ([4]; rTrx 5 μg/ml, day 3): increased expression

B2: IL4: cytokine used with IL2 to pretreat T cells for three days (protein, UniProt P05112 25-153, looked up)
Interleukin-4: HKCDITLQEIIKTLNSLTEQKTLCTELTVTDIFAASKNTTEKETFCRAATVLRQFYSHHEKDTRCLGATAQQFHRHKQLIRFLKRLDRNLWGLAGLNSCPVKEANQSTLENFLERLKTIMREKYSKCSS
persistence of pretreated T cells in vivo [5]: improved persistence
